Assay results: paper PMC8668987 (The Journal of Biological Chemistry, 2021)

Assays:
[1] = target: endogenous SRC-2 of mouse E14 ES cells (mouse (endogenous in E14 ES cells), UniProt Q61026 1-1462); assay: co-IP
[2] = target: endogenous SRC-3 of mouse E14 ES cells (mouse (endogenous in E14 ES cells), UniProt O09000 1-1398); assay: co-IP
Chain of endogenous SRC-3 of mouse E14 ES cells (O09000 whole entry): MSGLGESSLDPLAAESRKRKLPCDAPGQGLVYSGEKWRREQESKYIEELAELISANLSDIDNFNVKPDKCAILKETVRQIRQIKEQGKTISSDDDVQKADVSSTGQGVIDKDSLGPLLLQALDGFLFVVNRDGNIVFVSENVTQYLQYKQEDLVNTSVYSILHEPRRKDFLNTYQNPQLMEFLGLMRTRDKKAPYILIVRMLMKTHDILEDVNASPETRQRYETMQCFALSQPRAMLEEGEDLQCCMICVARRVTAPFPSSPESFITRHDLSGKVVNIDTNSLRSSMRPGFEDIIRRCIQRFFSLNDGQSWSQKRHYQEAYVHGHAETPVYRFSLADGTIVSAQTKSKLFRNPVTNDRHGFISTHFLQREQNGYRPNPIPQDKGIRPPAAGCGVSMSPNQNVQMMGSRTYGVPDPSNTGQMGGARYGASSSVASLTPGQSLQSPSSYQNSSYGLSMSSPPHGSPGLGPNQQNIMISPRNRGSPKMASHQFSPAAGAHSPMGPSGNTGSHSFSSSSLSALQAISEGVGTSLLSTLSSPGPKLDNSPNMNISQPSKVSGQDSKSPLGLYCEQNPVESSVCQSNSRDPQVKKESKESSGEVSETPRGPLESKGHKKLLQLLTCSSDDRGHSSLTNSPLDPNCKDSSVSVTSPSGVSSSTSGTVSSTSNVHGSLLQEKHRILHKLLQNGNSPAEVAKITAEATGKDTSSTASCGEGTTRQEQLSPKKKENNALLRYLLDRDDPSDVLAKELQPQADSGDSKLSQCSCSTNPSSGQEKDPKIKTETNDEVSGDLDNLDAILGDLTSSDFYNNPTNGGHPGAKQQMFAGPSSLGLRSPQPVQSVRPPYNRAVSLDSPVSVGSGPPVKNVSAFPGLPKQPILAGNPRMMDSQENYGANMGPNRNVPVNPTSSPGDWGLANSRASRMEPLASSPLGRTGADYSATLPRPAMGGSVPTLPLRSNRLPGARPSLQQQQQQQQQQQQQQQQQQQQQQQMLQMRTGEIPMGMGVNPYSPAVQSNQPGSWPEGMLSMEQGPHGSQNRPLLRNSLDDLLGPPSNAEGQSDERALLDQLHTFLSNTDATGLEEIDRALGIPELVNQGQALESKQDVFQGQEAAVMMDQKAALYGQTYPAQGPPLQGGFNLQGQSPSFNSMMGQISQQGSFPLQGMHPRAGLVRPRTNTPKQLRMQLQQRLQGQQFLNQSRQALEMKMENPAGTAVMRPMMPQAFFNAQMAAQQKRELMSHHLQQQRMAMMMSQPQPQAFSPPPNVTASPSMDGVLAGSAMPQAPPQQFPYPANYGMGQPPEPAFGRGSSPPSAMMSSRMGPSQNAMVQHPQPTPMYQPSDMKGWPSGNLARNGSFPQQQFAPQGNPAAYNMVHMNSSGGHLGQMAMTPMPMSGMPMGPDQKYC

Chain of endogenous SRC-2 of mouse E14 ES cells (Q61026 whole entry): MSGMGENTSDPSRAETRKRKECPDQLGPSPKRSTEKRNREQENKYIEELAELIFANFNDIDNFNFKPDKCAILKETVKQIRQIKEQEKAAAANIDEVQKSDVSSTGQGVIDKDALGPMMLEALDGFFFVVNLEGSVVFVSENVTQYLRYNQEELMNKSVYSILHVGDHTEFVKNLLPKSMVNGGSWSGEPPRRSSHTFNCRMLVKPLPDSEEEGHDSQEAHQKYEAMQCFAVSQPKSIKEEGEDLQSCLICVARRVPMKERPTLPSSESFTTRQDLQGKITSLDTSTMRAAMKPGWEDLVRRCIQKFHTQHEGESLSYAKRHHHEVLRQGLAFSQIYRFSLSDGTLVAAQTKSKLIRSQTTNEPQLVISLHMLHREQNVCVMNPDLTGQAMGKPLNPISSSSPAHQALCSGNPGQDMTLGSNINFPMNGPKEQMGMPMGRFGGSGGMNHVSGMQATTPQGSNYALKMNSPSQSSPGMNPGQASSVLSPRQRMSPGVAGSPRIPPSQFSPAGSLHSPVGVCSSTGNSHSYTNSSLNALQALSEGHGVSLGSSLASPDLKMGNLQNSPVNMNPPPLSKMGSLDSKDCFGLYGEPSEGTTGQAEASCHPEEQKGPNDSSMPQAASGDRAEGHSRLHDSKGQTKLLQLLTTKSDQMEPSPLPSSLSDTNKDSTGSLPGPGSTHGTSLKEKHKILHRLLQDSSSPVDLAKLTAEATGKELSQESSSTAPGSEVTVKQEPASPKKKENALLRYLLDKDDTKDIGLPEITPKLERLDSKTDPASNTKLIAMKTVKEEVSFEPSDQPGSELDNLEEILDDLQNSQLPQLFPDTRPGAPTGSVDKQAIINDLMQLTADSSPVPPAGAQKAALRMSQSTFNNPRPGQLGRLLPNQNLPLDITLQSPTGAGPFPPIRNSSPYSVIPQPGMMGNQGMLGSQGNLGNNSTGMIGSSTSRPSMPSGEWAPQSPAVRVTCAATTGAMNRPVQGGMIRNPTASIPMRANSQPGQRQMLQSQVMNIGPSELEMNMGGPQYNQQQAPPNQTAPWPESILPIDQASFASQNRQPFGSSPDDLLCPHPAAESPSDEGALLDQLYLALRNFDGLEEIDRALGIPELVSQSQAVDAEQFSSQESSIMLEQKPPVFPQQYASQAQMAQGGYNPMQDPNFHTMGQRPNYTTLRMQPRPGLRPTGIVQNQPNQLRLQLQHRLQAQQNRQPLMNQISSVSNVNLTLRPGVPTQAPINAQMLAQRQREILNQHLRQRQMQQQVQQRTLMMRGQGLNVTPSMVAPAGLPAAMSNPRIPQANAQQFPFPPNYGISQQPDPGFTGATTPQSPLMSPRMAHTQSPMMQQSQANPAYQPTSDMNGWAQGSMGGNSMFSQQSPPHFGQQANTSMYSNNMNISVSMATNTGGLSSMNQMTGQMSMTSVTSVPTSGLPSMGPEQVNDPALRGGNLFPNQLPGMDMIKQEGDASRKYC

B1: endogenous Sox2 of mouse E14 ES cells (natural protein)
chain: not shown
With B1 the “fold change of co-precipitated Sox2, TSA plus NAM against untreated cells” value [1] was 4.08 fold and the “fold change of co-precipitated Sox2, TSA plus NAM against untreated cells” value [2] was 7.53 fold.
